Results: paper doi:10.1101/2023.01.09.523258 (bioRxiv, 2023)

Target: the molecule itself
Experiment: native MS

B1: Conalbumin (Ovotransferrin/OVT) from chicken egg white (natural protein, UniProt P02789 20-705, looked up)
chain: APPKSVIRWCTISSPEEKKCNNLRDLTQQERISLTCVQKATYLDCIKAIANNEADAISLDGGQAFEAGLAPYKLKPIAAEVYEHTEGSTTSYYAVAVVKKGTEFTVNDLQGKTSCHTGLGRSAGWNIPIGTLLHRGAIEWEGIESGSVEQAVAKFFSASCVPGATIEQKLCRQCKGDPKTKCARNAPYSGYSGAFHCLKDGKGDVAFVKHTTVNENAPDQKDEYELLCLDGSRQPVDNYKTCNWARVAAHAVVARDDNKVEDIWSFLSKAQSDFGVDTKSDFHLFGPPGKKDPVLKDLLFKDSAIMLKRVPSLMDSQLYLGFEYYSAIQSMRKDQLTPSPRENRIQWCAVGKDEKSKCDRWSVVSNGDVECTVVDETKDCIIKIMKGEADAVALDGGLVYTAGVCGLVPVMAERYDDESQCSKTDERPASYFAVAVARKDSNVNWNNLKGKKSCHTAVGRTAGWVIPMGLIHNRTGTCNFDEYFSEGCAPGSPPNSRLCQLCQGSGGIPPEKCVASSHEKYFGYTGALRCLVEKGDVAFIQHSTVEENTGGKNKADWAKNLQMDDFELLCTDGRRANVMDYRECNLAEVPTHAVVVRPEKANKIRDLLERQEKRFGVNGSEKSKFMMFESQNKDLLFKDLTKCLFKVREGTTYKEFLGDKFYTVISSLKTCNPSDILQMCSFLEGK
**Q.** Which “stoichiometry N” value does the source give for B1 here?
**A.** The value was 2.
